Measurements as given in the supplement of paper PMC9112550, “Optimization of the antimicrobial peptide Bac7 by deep mutational scanning” (BMC Biology, 2022).

test system: Escherichia coli TOP10; assay: shrunken log2 fold change of peptide-encoding DNA abundance (4.5 h post-induction vs induction); higher = less antimicrobial activity (less host growth inhibition); conditions: time post-induction: 4.5 h; library: site-saturation at positions 5, 18, 19, 20
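Further: peptides expressed intracellularly from a pBAD plasmid library in pooled LB shake-flask culture, induced with 0.3% L-arabinose, DNA abundance read by NGS, three biological replicates, DESeq2 with apeglm shrinkage.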

Point of comparison: RRIRFRPPRLPRPRPRPEKGPRP, “shrunken log2 fold change” value 0.0184. Against it:
- RRIRFRPPRLPRPRPRPPAEPRP — higher, 0.606
- RRIRGRPPRLPRPRPRPVTQPRP — higher, 0.445
- RRIRFRPPRLPRPRPRPVDYPRP — within 0.2 log units, -0.031
- RRIRWRPPRLPRPRPRPGVRPRP — higher, 0.304
- RRIRFRPPRLPRPRPRPQQHPRP — lower, -0.38
- RRIRPRPPRLPRPRPRPTDHPRP — within 0.2 log units, -0.114
- RRIRVRPPRLPRPRPRPKRAPRP — higher, 0.553
- RRIRARPPRLPRPRPRPDALPRP — higher, 0.625
- RRIRERPPRLPRPRPRPEKQPRP — within 0.2 log units, -0.00177
- RRIRMRPPRLPRPRPRPQKRPRP — higher, 0.489
- RRIRTRPPRLPRPRPRPHEDPRP — lower, -0.183
- RRIRARPPRLPRPRPRPSVCPRP — higher, 0.348
- RRIRSRPPRLPRPRPRPEFIPRP — within 0.2 log units, 0.162
- RRIRDRPPRLPRPRPRPEIEPRP — higher, 0.522
- RRIRMRPPRLPRPRPRPHYQPRP — lower, -0.228
- RRIRYRPPRLPRPRPRPVWNPRP — within 0.2 log units, -0.136
- RRIRRRPPRLPRPRPRPMACPRP — within 0.2 log units, -0.0812
- RRIRFRPPRLPRPRPRPYGTPRP — lower, -0.81
- RRIRRRPPRLPRPRPRPLLTPRP — higher, 0.399
- RRIRCRPPRLPRPRPRPGLTPRP — within 0.2 log units, 0.108
- RRIRVRPPRLPRPRPRPEVFPRP — within 0.2 log units, 0.0748
- RRIRMRPPRLPRPRPRPCLHPRP — lower, -0.608
- RRIRERPPRLPRPRPRPPHRPRP — within 0.2 log units, 0.0387
- RRIRDRPPRLPRPRPRPYDFPRP — within 0.2 log units, -0.178
- RRIRVRPPRLPRPRPRPMFEPRP — within 0.2 log units, 0.0774
- RRIRCRPPRLPRPRPRPRHIPRP — lower, -0.28
- RRIRGRPPRLPRPRPRPPELPRP — higher, 1.18
- RRIRCRPPRLPRPRPRPDTQPRP — lower, -0.239
- RRIRPRPPRLPRPRPRPYLYPRP — lower, -0.672
- RRIRARPPRLPRPRPRPTPAPRP — higher, 1.05
- RRIRPRPPRLPRPRPRPIYTPRP — lower, -0.245
- RRIRNRPPRLPRPRPRPIGYPRP — within 0.2 log units, 0.103
- RRIRERPPRLPRPRPRPCPLPRP — lower, -0.265
- RRIRIRPPRLPRPRPRPRSEPRP — within 0.2 log units, -0.0944
- RRIRCRPPRLPRPRPRPMKEPRP — within 0.2 log units, -0.18
- RRIRFRPPRLPRPRPRPSIAPRP — lower, -0.271
- RRIRFRPPRLPRPRPRPHKPPRP — within 0.2 log units, 0.14
- RRIRSRPPRLPRPRPRPPQPPRP — higher, 0.432
- RRIRIRPPRLPRPRPRPSYTPRP — lower, -1.06
- RRIRDRPPRLPRPRPRPGAQPRP — higher, 1.02
- RRIRNRPPRLPRPRPRPQYTPRP — lower, -0.737
- RRIRCRPPRLPRPRPRPVIWPRP — within 0.2 log units, 0.0816
- RRIRARPPRLPRPRPRPTGDPRP — higher, 0.604
- RRIRSRPPRLPRPRPRPCMEPRP — lower, -0.292
- RRIRCRPPRLPRPRPRPQPMPRP — within 0.2 log units, -0.0366
- RRIRRRPPRLPRPRPRPHSIPRP — within 0.2 log units, 0.052
- RRIRGRPPRLPRPRPRPKSSPRP — higher, 0.508
- RRIRDRPPRLPRPRPRPESHPRP — within 0.2 log units, 0.0331
- RRIRNRPPRLPRPRPRPTFLPRP — lower, -0.272
- RRIRHRPPRLPRPRPRPCAPPRP — within 0.2 log units, 0.0642
- RRIRARPPRLPRPRPRPCCCPRP — higher, 0.689
- RRIRGRPPRLPRPRPRPPVFPRP — higher, 0.647
- RRIRWRPPRLPRPRPRPPCHPRP — within 0.2 log units, 0.0912
- RRIRPRPPRLPRPRPRPHILPRP — lower, -0.381
- RRIRFRPPRLPRPRPRPTDCPRP — within 0.2 log units, -0.0151
- RRIRHRPPRLPRPRPRPCCTPRP — within 0.2 log units, -0.181
- RRIRFRPPRLPRPRPRPAKKPRP — within 0.2 log units, 0.188
- RRIRIRPPRLPRPRPRPAKYPRP — lower, -0.247
- RRIRMRPPRLPRPRPRPNLCPRP — within 0.2 log units, 0.015
- RRIRIRPPRLPRPRPRPGCWPRP — higher, 0.312
- RRIRGRPPRLPRPRPRPPYAPRP — higher, 0.798
- RRIRCRPPRLPRPRPRPNFLPRP — lower, -0.265
- RRIRARPPRLPRPRPRPARYPRP — within 0.2 log units, 0.12
- RRIRLRPPRLPRPRPRPIIMPRP — lower, -0.252
- RRIRARPPRLPRPRPRPCSQPRP — within 0.2 log units, -0.172
- RRIRMRPPRLPRPRPRPVAMPRP — higher, 0.57
- RRIRDRPPRLPRPRPRPWYPPRP — within 0.2 log units, -0.0798
- RRIRKRPPRLPRPRPRPQIFPRP — within 0.2 log units, -0.0259
- RRIRHRPPRLPRPRPRPSLPPRP — lower, -0.328
- RRIRERPPRLPRPRPRPLHRPRP — within 0.2 log units, -0.0862
- RRIRERPPRLPRPRPRPNNWPRP — lower, -0.524
- RRIRHRPPRLPRPRPRPDTSPRP — within 0.2 log units, -0.0188
- RRIRMRPPRLPRPRPRPHYNPRP — lower, -0.467
- RRIRSRPPRLPRPRPRPCLAPRP — within 0.2 log units, 0.0253
- RRIRSRPPRLPRPRPRPFTQPRP — lower, -0.403
- RRIRVRPPRLPRPRPRPGEMPRP — higher, 0.329
- RRIRHRPPRLPRPRPRPYCNPRP — lower, -0.456
- RRIRMRPPRLPRPRPRPWTLPRP — within 0.2 log units, -0.0343
- RRIRWRPPRLPRPRPRPSIDPRP — higher, 0.452
- RRIRIRPPRLPRPRPRPTTMPRP — lower, -0.394
- RRIRCRPPRLPRPRPRPEPIPRP — within 0.2 log units, -0.0787
- RRIRCRPPRLPRPRPRPICRPRP — within 0.2 log units, -0.0824
- RRIRHRPPRLPRPRPRPMCIPRP — within 0.2 log units, -0.162
- RRIRQRPPRLPRPRPRPENWPRP — higher, 0.284
- RRIRFRPPRLPRPRPRPPTEPRP — higher, 0.438
- RRIRPRPPRLPRPRPRPSCWPRP — higher, 0.36
- RRIRLRPPRLPRPRPRPHPVPRP — within 0.2 log units, 0.0604
- RRIRYRPPRLPRPRPRPGGNPRP — within 0.2 log units, -0.0562
- RRIRDRPPRLPRPRPRPKAQPRP — within 0.2 log units, -0.1
- RRIRLRPPRLPRPRPRPPYYPRP — lower, -0.292
- RRIRWRPPRLPRPRPRPMENPRP — within 0.2 log units, 0.0913
- RRIRPRPPRLPRPRPRPQRMPRP — within 0.2 log units, 0.209
- RRIRVRPPRLPRPRPRPFVLPRP — lower, -0.322
- RRIRSRPPRLPRPRPRPYQNPRP — lower, -0.511
- RRIRNRPPRLPRPRPRPQLRPRP — within 0.2 log units, 0.0493
- RRIRWRPPRLPRPRPRPAACPRP — within 0.2 log units, 0.0948
- RRIRLRPPRLPRPRPRPWGGPRP — higher, 1.94
- RRIRERPPRLPRPRPRPFQMPRP — within 0.2 log units, -0.112
- RRIRHRPPRLPRPRPRPPEFPRP — within 0.2 log units, -0.0433
- RRIRERPPRLPRPRPRPGTTPRP — lower, -0.433
- RRIRHRPPRLPRPRPRPHNYPRP — lower, -0.296
- RRIRMRPPRLPRPRPRPQSNPRP — within 0.2 log units, 0.0557
- RRIRPRPPRLPRPRPRPTLFPRP — within 0.2 log units, 0.2
- RRIRHRPPRLPRPRPRPIFRPRP — within 0.2 log units, -0.173
- RRIRARPPRLPRPRPRPPAIPRP — higher, 0.382
- RRIRWRPPRLPRPRPRPTPRPRP — higher, 0.851
- RRIRTRPPRLPRPRPRPCLLPRP — lower, -0.413
- RRIRFRPPRLPRPRPRPELRPRP — within 0.2 log units, -0.0629
